This is an account of results in PMC7544233 (2020).

The subject of series [1] is FAM-D-hTERC rG4 (RNA, G4) GGGUUGCGGAGGGUGGGCCU
The series can be described thus: microscale thermophoresis. As to conditions: 150 mM KCl, 1 mM MgCl2; 25 mM Tris-HCl pH 7.5, 25 °C, 40 nM RNA.

The target of the next series is T1, RHAU53 peptide (UniProt Q9H2U1 53-105).
T1 sequence: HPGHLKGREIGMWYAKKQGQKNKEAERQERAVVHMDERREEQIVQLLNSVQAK
Kind of series: EMSA.

Another series has as its target nucleolin (UniProt P19338 1-710). The series can be described thus: EMSA.

nucleolin, sequence (P19338 whole entry): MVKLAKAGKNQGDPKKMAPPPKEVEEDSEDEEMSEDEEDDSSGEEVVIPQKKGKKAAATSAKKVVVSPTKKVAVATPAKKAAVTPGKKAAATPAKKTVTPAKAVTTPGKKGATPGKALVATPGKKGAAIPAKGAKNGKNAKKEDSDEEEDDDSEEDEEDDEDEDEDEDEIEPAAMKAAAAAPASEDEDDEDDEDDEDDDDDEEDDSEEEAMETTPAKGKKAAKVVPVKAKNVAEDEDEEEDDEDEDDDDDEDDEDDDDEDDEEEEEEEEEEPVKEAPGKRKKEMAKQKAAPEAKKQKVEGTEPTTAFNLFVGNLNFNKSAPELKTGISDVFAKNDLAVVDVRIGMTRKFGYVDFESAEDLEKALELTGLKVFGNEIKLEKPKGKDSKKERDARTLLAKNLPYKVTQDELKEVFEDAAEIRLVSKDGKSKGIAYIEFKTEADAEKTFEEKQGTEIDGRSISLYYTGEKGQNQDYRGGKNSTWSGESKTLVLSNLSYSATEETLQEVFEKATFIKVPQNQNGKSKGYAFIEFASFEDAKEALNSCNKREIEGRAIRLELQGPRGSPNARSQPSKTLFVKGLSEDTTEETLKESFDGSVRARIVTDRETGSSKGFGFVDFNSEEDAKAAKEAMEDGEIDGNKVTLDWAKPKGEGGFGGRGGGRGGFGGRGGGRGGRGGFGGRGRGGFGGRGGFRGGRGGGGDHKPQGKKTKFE

Take `NCCOc1cc(NC(=O)c2cc(OCc3cn(CCC(=O)O)nn3)cc(C(=O)Nc3cc(OCCN)c4ccccc4n3)n2)nc2ccccc12`: the Kd in series [1] is listed as 19.5 ± 11.5 nM.

B1: D-hTERC rG4 (structured_RNA)
RNA: GGGUUGCGGAGGGUGGGCCU
Consider B1, for which the affinity in the series with RHAU53 peptide, expressed as Kd, was 24.5 ± 3.9 nM. In addition, in the series with nucleolin, the binding result is “binds”.
